The results in this text go back to patent US20190390248.

The series addresses human prothrombin, P00734.
The mark [1] stands for this setting: scale: nmol thrombin/mL/min/µmol prothrombin/µmol activator.

Where two headings read alike, the source gives them in different places.

B1: notecarin from Notechis scutatus venom (protein)
chain: SNSLFEEIRPGNIERECIEEKCSKEEAREVFEDNEKTETFWNVYVDGDQCSSNPCHYRGTCKDGIGSYTCTCLPNYEGKNCEKVLFKSCRAFNGNCWHFCKRVQSETQCSCAESYLLGVDGHSCVAEGDFSCGRNIKARNKREASLPDFVQSQKATVLKKSDNPSPDIRIVNGMDCKLGECPWQAVLINEKGEVFCGGTILSPIHVLTAAHCINQTKSVSVIVGEIDISRKETRRLLSVDKIYVHKKFVPPNSYYQNIDRFAYDYDIAIIRMKTPIQFSENVVPACLPTADFAKEVLMKQDSGIVSGFGRTQSIGYTSNILKVITVPYVDRHTCMLSSNFRITQNMFCAGYDTLPQDACQGDSGGPHITAYGDTHFVTGIISWGEGCARKGKYGVYTKVSNFIPWIKKIMSLK
Consider B1, for which the “N-terminal sequencing of SDS-PAGE bands” value is “confirmed conversion of prothrombin to alpha-thrombin by PtPA and notecarin”; the “percent of S-2238 hydrolysed by the thrombin formed” value is “then carinactivase-1 and lastly notecarin (<1%) being the least efficient”. Under setting [1], this protein came in with a Thrombin generation rate of 0.043.

B2: OsPA (prothrombin activator purified from Oxyuranus scutellatus venom) (protein)
chain 1: AQLREYRLAAQLEDWDYNPQPEELSRLSESDLTFKKIVYREYELDFKQEKPRDELSGLLGPTLRGEVGDSLIIYFKNFATQPVSIHPQSAVYNKWSEGSSYSDGTSDVERLDDAVPPGQSFKYVWNITAEIGPKKADPPCLTYAYYSHVNMVRDFNSGLIGALLICKEGSLNADGAQKFFNREYVLMFSVFDESKNWYRKPSLQYTINGFANGTLPDVQACAYDHISWHLIGMSSSPEIFSVHFNGQTLEQNHYKVSTINLVGGASVTANMSVSRTGKWLISSLVAKHLQAGMYGYLNIKDCGNPDTLTRKLSFRERRRIMKWEYFIAAEEITWDYAPEIPSSVDRRYKAQYLDNFSNFIGKKYKKAVFRQYEDSNFTKPTYAIWPKERGILGPVIKAKVRDTVTIVFKNLASRPYSIYVHGVSVSKDAEGAVYPSDPKENITHGKAVEPGQVYTYKWTVLDTDEPTVKDSECITKLYHSAVDMTRDIASGLIGPPLVCKRKALSIRGVQNKADVEQHAVFAVFDENKSWYLEDNIKKYCSNPSSVKKDDPKFYKSNVMYTLNGYASDRTEVWGFHQSEVVEWHLTSVGTVDEIVPVHLSGHTFLSKGKHQDILNLFPMSGESATVTMDNLGTWLLSSWGSCEMSNGMRLRFLDANYDDEDEGNEEEEEDDGDIFADIFNPPEVVIKKEEVPVNFVPDPESDALAKELGLFDDEDNPKQSRSEQTEDDEEQLMIASMLGLRSFKGSVAEEELKHTALALEEDAHASDPRIDSNSAHNSDDIAGRYLRTINRRNKRRYYIAAEEVLWDYSPIGKSQVRSLPAKTTFKKAIFRSYLDDTFQTPSTGGEYEKHLGILGPIIRAEVDDVIEVQFRNLASRPYSLHAHGLLYEKSSEGRSYDDNSPELFKKDDAIMPNGTYTYVWQVPPRSGPTDNTEKCKSWAYYSGVNPEKDIHSGLIGPILICQKGMIDKYNRTIDIREFVLFFMVFDEEKSWYFPKSDKSTCEEKLIGVQSRHTFPAINGIPYQLQGLMMYKDENVHWHLLNMGGPKDVHVVNFHGQTFTEEGREDNQLGVLPLLPGTFASIKMKPSKIGTWLLETEVGENQERGMQALFTVIDKDCKLPMGLASGIIQDSQISASGHVGYWEPKLARLNNTGMFNAWSIIKKEHEHPWIQIDLQRQVVITGIQTQGTVQLLKHSYTVEYFVTYSKDGQNWITFKGRHSKTQMHFEGNSDGTTVKENHIDPPIIARYIRLHPTKFYNTPTFRIELLGCEVEGCSVPLGMESGAIKDSEITASSYKKTWWSSWEPFLARLNLKGRTNAWQPKVNNKDQWLQIDLQHLTKITSIITQGATSMTTSMYVKTFSIHYTDDNSTWKPYLDVRTSMEKVFTGNINSDGHVKHFFNPPILSRFIRIIPKTWNQYIALRIELFGCEVF
chain 2: ANSLYEEFRSGNIERECIEERCSKEEAREVFEDDEKTETFWNVYVDGDQCSSNPCHYRGTCKDGIGSYTCTCLSGYEGKNCERVLYKSCRVDNGNCWHFCKPVQNDIQCSCAEGYLLGEDGHSCVAGGNFSCGRNIKTRNKREASLPDFVQSQNAILLKKSDNPSPDIRIVNGMDCKLGECPWQAVLVDEKEDAFCGGTILSPIYVLTAAHCINQTKMISVVVGEINISRKNPGRLLSVDKIYVHQKFVPPKKGYEFYEKFDLVSYDYDIAILQMKTPIQFSENVVPACLPTADFANQVLMKQDFGIVSGFGRIFEKGPQSKTLKVLKVPYVDRHTCMLSSESPITPTMFCAGYDTLPRDACQGDSGGPHITAYRDTHFITGIVSWGEGCAQTGKYGVYTKVSKFILWIKRIMRQKLPSTESSTGRL
Turning to B2, the “fold more effective than carinactivase-1 (activation rate constants)” value is “more than 200 times then carinactivase-1”; the “fold more effective than carinactivase-2 (activation rate constants)” value was “more than 20 times more effective than ecarin and carinactivase-2”; the “fold more effective than ecarin (activation rate constants)” value was “more than 20 times more effective than ecarin and carinactivase-2”; the “fold more effective than notecarin (activation rate constants)” value is on record as “approximately 1000 times more effective than notecarin”. The protein also had a Thrombin generation rate under setting [1] of 44.

B3: ecarin from Echis carinatus venom (protein)
chain: IILGSGNVNDYEVVYPQKVTALPKGAVQQPEQKYEDAMQYEFEVKGEPVVHLEKNKELFSEDYSETHYSSDDREITTNPSVEDHCYYHGRIQNDAESTASISACNGLKGHFKLRGETYFIEPLKIPDSEHAVYKYENIENEDEAPKMCGVTQDNWESDEPIKKTLGLIVPPHERKFEKKFIELVVVVDHSMVTKYNNDSTAIRTWIYELNTVNEIYLPFNIRVALVGLEFWCNGDLINVTSTADDTLHSFGEWRASDLLNRKRHDHAQLLTNVTLDHSTLGITFVYGCKSDRSVELILDYSNITFNMAYIIAHEMGHSLGMLHDTKFCTCGAKPCIMFGKESIPPPKEFSSCSYDQYNKYLLKYNPCILDPPLRKDIASPAVCGNEIWEEGEECDCGSPADCRNPCCDAATCKLKPGAECGNGECCDKCKIRKAGTECRPARDDCVAEHCTGQSAECPRNEFQRNGQPCLNNSGYCYNGDCPIMLNQCIALFSPSATVAQDSCFQRNLQGSYYGYCTKEIGYYGRFPCAPQDVKCGRLYCLDNSFKKNMRCKNDYSYADENKGIVEPGTKCEDGKVCINRKCVDVNTAY
Regarding B3, the Thrombin generation rate was found to be 2.76.
